Experimental data published in patent US7354588B1, “Functional derivatives of ICAM-1 with altered ability to bind LFA-1 or HRV” (Dana Farber Cancer Institute, priority 1987, dated 2008).

Experiments:
LFA-1 on SKW-3 cells = molecular target: T1, LFA-1 on SKW-3 cells (Homo sapiens, UniProt P05107+P20701); experiment: SKW-3 cell binding to ICAM-1 bound to plastic (solid phase); assay type: cell-based; conditions: purified protein bound to 96-well plates
T1 construct: SKW-3 cells bearing LFA-1 on their surface; endogenous in cells; host or cells: SKW-3 T-lymphoma cells
T1 sequence (P20701 26-1170): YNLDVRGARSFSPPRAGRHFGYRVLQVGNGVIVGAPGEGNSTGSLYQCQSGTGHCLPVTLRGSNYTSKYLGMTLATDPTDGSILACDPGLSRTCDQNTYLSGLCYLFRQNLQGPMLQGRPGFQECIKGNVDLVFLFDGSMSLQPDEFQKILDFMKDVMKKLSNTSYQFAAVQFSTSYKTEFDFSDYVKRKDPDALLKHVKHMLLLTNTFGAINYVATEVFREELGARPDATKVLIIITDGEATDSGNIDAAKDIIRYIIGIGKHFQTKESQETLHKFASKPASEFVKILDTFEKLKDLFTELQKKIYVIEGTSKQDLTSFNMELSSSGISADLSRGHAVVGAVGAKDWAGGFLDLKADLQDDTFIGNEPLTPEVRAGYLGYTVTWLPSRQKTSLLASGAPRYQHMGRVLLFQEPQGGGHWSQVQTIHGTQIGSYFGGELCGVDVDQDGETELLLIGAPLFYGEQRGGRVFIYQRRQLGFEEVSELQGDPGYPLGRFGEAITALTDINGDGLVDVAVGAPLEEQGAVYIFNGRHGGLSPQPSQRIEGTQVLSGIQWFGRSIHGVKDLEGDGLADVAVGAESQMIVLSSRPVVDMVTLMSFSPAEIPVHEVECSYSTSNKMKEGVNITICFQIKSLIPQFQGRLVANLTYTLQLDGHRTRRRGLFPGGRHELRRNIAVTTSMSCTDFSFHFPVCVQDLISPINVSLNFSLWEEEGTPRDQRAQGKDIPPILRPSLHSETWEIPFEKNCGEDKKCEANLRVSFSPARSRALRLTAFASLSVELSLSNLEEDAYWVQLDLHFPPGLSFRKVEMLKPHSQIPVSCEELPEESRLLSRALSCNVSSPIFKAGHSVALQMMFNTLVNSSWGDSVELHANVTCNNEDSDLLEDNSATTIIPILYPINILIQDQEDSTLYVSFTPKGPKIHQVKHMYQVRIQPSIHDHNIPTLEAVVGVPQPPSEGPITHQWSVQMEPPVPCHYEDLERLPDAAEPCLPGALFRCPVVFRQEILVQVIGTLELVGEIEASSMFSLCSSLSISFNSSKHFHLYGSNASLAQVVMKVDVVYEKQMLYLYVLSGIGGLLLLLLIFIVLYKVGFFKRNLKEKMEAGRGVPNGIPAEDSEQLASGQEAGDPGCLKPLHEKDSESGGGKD
T1 sequence (P05107 23-769): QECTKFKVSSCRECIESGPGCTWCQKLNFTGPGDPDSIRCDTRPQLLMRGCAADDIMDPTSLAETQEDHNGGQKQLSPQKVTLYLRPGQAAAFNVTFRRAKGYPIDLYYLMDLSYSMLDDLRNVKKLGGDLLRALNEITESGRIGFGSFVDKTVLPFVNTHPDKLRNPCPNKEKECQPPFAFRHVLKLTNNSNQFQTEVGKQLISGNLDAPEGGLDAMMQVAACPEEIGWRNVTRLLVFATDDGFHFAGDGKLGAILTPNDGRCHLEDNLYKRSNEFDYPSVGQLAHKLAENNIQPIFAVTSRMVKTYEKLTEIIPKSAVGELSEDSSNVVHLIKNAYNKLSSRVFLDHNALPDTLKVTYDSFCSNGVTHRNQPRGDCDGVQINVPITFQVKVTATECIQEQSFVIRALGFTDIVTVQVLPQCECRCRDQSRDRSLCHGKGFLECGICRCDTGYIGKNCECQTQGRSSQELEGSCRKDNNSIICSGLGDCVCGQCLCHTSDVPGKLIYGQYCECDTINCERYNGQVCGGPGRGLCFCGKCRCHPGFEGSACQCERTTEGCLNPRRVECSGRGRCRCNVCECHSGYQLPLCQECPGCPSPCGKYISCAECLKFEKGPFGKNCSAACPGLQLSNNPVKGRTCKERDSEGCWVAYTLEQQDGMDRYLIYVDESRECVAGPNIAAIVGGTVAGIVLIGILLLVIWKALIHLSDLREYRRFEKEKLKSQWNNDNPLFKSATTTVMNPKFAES
Text: The truncated ICAM-1 secreted from transfected cells was purified by immunoaffinity chromatography with an ICAM-1 specific antibody (R6-5-D6) and tested for functional activity in a cell binding assay. […] These preparations of ICAM-1 were allowed to bind to the surfaces of plastic 96-well plates (Nunc), to produce ICAM-1 bound to a solid-phase. After washing out unbound material, approximately 75-80% and 83-88% of SKW-3 cells bearing LFA-1 on their surface bound specifically to the native and to the truncated forms of ICAM-1, respectively.

HRV14 = experiment: Binding of [^35S]-Met labeled HRV14 to COS cells expressing ICAM-1 mutants; assay type: cell-based, human rhinovirus 14
LFA-1 = molecular target: T2, LFA-1 (Homo sapiens, UniProt P05107+P20701); experiment: Adherence of COS cells expressing ICAM-1 or ICAM-1 mutants to plastic-bound purified LFA-1; assay type: cell-based
T2 construct: endogenous in cells
T2 sequence (P20701 26-1170): as the sequence (P20701 26-1170) above
T2 sequence (P05107 23-769): as the sequence (P05107 23-769) above

B1: Native ICAM-1: native (wild-type) Intercellular Adhesion Molecule-1, purified or expressed in COS cells (protein, UniProt P05362 28-532, looked up)
Intercellular adhesion …: QTSVSPSKVILPRGGSVLVTCSTSCDQPKLLGIETPLPKKELLLPGNNRKVYELSNVQEDSQPMCYSNCPDGQSTAKTFLTVYWTPERVELAPLPSWQPVGKNLTLRCQVEGGAPRANLTVVLLRGEKELKREPAVGEPAEVTTTVLVRRDHHGANFSCRTELDLRPQGLELFENTSAPYQLQTFVLPATPPQLVSPRVLEVDTQGTVVCSLDGLFPVSEAQVHLALGDQRLNPTVTYGNDSFSAKASVSVTAEDEGTQRLTCAVILGNQSQETLQTVTIYSFPAPNVILTKPEVSEGTEVTVKCEAHPRAKVTLNGVPAQPLGPRAQLLLKATPEDNGRSFSCSATLEVAGQLIHKNQTRELRVLYGPRLDERDCPGNWTWPENSQQTPMCQAWGNPLPELKCLKDGTFPLPIGESVTVTRDLEGTYLCRARSTQGEVTRKVTVNVLSPRYEIVIITVVAAAVIMGTAGLSTYLYNRQRKIKKYRLQQAQKGTPMKPNTQATPP
SKW-3 cells bound specifically to plastic-bound ICAM-1 (LFA-1 on SKW-3 cells): 75-80%
Percent of [^35S] methionine-labeled HRV-14 which bound to COS cells, mean (HRV14): 21%
Percent of [^35S] methionine-labeled HRV-14 which bound to COS cells, range over experiments (HRV14; mock-transfected 0-4%): 6-43%
Percent of ICAM-1 expressing COS cells that bound to LFA-1, mean (LFA-1): 33%
Percent of ICAM-1 expressing COS cells that bound to LFA-1, range over experiments (LFA-1; mock-transfected 0-1%): 11-63%
% of Cells Expressing ICAM-1 that Bind LFA-1 in the Presence of RR1/1 (LFA-1; transfected Cos cells, purified LFA-1 on plastic): 0%
